Measurements published in patent publication US20150017171A1 (CHINA SYNTHETIC RUBBER, published 2015).

T1: recombinant human PLVAP51-442 protein (extracellular domain, His tag removed by thrombin) (human, UniProt Q9BX97 51-442)
T1 construct: also called recombinant PLVAP protein; recombinant PLVAP
T1 sequence: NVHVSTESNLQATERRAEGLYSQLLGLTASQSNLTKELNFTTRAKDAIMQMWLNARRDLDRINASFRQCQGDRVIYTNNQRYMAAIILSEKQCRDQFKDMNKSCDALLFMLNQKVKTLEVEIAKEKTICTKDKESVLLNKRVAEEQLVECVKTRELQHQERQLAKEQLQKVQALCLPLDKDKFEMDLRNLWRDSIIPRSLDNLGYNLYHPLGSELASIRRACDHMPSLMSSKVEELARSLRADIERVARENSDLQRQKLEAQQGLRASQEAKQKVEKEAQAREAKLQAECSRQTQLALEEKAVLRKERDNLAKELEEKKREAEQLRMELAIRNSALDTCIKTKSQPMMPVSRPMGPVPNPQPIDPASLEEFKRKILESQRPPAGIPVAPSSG

T2: His-tagged human PLVAP51-292 (human, UniProt Q9BX97 51-292)
T2 construct: also called N-terminal portion of the extracellular domain; not shown: His tag and vector residues of pET-15b
T2 sequence: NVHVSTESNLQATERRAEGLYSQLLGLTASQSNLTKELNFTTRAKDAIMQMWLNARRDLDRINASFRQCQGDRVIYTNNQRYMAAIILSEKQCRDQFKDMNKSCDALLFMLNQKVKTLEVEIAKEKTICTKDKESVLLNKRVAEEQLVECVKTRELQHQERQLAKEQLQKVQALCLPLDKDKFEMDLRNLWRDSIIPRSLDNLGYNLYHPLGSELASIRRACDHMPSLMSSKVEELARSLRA

T3: His-tagged human CEACAM6 (human, UniProt P40199 35-320, limits assumed)
T3 construct: also called human CEACAM6 protein unrelated to PLVAP (lane 4); not shown: His tag
T3 sequence (looked up): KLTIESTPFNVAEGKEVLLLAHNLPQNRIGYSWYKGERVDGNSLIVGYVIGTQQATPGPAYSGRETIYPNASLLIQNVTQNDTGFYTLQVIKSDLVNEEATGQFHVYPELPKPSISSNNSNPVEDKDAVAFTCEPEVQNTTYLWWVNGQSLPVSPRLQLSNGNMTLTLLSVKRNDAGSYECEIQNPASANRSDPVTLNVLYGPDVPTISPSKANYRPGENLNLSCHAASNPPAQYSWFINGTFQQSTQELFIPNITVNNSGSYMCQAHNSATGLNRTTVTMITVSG


Assays:
[1] = biological target: T1, recombinant human PLVAP51-442 protein …; assay: competition ELISA on coated recombinant PLVAP; competitor biotinylated murine KFCC-GY5 at 0.1 µg/ml
Protocol: (§1) The binding of chimeric KFCC-GY4 and KFCC-GY5 antibodies to recombinant PLVAP protein was assessed in a competition ELISA. Either a dilution series of chimeric or control antibody from 30 μg/ml to 0.014 μg/m (final concentration) was premixed with a constant concentration of biotinylated murine KFCC-GY4 (0.3 μg/ml, final concentration) or a dilution series of chimeric or control antibody from 10 μg/ml to 0.004 μg/m (final concentration) was premixed with a constant concentration of biotinylated murine KFCC-GY5 (0.1 μg/ml, final concentration) before incubating for 1 hour at room temperature on a Nunc Immuno MaxiSorp 96 well flat bottom microtitre plate (Fisher Catalogue No. DIS-971-030J) precoated with 1 μg/ml recombinant PLVAP protein diluted in PBS. The binding of the biotinylated mAb was determined by detection with streptavidin-HRP and TMB substrate.
(§2) Therefore, the correct variable region sequences for the parent murine monoclonal antibodies were identified and cloned.

[2] = biological target: T1, recombinant human PLVAP51-442 protein …; assay: Biacore T-100
[3] = biological target: T1, recombinant human PLVAP51-442 protein …; assay: competition ELISA on coated recombinant PLVAP; competitor biotinylated murine KFCC-GY4
Protocol: (§3) The binding of KFCC-GY4 and KFCC-GY5 human antibody variants to recombinant PLVAP was assessed in a competition ELISA. Either a dilution series of variant or control antibody from 30 μg/m to 0.014 μg/m (final concentration) was premixed with a constant concentration of biotinylated murine KFCC-GY4 (0.3 μg/ml, final concentration) or a dilution series of variant or control antibody from 10 μg/m to 0.004 μg/ml (final concentration) was premixed with a constant concentration of biotinylated murine KFCC-GY5 (0.1 μg/ml, final concentration) before incubating for 1 hour at room temperature on a Nunc Immuno MaxiSorp 96 well flat bottom microtitre plate (Fisher Catalogue No. DIS-971-030J) precoated with 1 μg/m recombinant “protein P” diluted in PBS. The binding of the biotinylated mAb was determined by detection with streptavidin-HRP and TMB substrate. After stopping the reaction with 3M HCl, absorbance was measured at 450 nm on a Dynex Technologies MRX TC II plate reader and the binding curves of the test antibodies compared against the mouse reference standard.
The five lead variants of IgG4-GY4 and murine KFCC-GY4 antibodies have very similar binding profiles (FIG. 48). All of the lead variants shown are within two-fold of the original murine monoclonal antibody.

[4] = biological target: T1, recombinant human PLVAP51-442 protein …; assay: competition ELISA on coated recombinant PLVAP; competitor biotinylated murine KFCC-GY4 at 0.3 µg/ml
Protocol: as §1, §2

[5] = biological target: T1, recombinant human PLVAP51-442 protein …; assay: ANTQ300 quartz crystal microbalance
[6] = biological target: T2, His-tagged human PLVAP51-292; assay: immunoblot of total protein extract of E. coli expressing the His-tagged protein
Source text: (§4) Molecular weight protein standards are resolved in Lane M.

His-tagged human CEACAM6 = biological target: T3, His-tagged human CEACAM6; assay: as above
Source text: as §4

[7] = biological target: T1, recombinant human PLVAP51-442 protein …; assay: competition ELISA on coated recombinant PLVAP; competitor biotinylated murine KFCC-GY5
Protocol: as §3
Similarly, the four lead variants of IgG4-GY5 and murine KFCC-GY5 antibodies have very similar binding profiles (FIG. 49). All of the lead variants shown are within two-fold of the original murine monoclonal antibody.

Row | Binder | IC50 [3] | IC50 (ratio compared to GY4 mAb) [3] | IC50 [7] | IC50 (ratio compared to GY5 mAb) [7] | other results
1 | chimeric KFCC-GY5 antibody (CSR02) (antibody, human IgG4, V domains shown, also called Chimeric GY5; chimeric IgG4-GY5) VH: QVQLQQPGAELVRPGASVKLSCKASGYTFTSNYINWVKQRPGQGLEWIGNIYPSDGFTNYNQKFKDRATLTVDKSSSTAYMQLSSPTSEDSAVYYCTRNFDVWGAGTTVTVSS VL: DVVMTQTPLSLPVSLGDQASISCRSSQSLVHSNGNTYLQWYLQKPGQSPKLLIYTVSNRFSGVPDRFSGSGSGPDFTLKISRVEAEDLGVYFCSQSTHVPFTFGSGTKLEIK | – | – | – | – | IC50 [1]: 0.4 µg/mL; Kd [2]: 0.978 nM; koff [2]: 3.01e-05 s⁻¹; kon [2]: 30700 M⁻¹ s⁻¹
2 | humanized KFCC-GY4 antibody CSR01-VH5/VK2 (antibody, human IgG4, V domains shown, also called VH5/VK2 (GY4 variant); CSR01-VH5NK2) VH: EVQLVQSGAEVKKPGASVKVSCTASGFNIKDYYIHWVRQAPGQGLEWIGWIDPENGDIEYAPKFQGRATITADTSTDTAYMELSSLRSEDTAVYYCLYQEGSWGQGTTVTVSS VL: DVVMTQSPLSLPVTLGQPASISCKSSQSLLNSDGKTYLNWLQQRPGQSPRRLIYLVSKLDSGVPDRFTGSGSGTDFTLKISRVEAEDVGVYYCWQGTHFPFTFGGGTKVEIKR | 1.91 µg/mL | 1.05 | – | – | –
3 | humanized KFCC-GY4 antibody CSR01-VH4/VK2 (antibody, human IgG4, V domains shown, also called VH4/VK2 (GY4 variant); CSR01-VH4NK2) VH: EVQLVQSGAEVKKPGASVKVSCTASGFNIKDYYIHWVRQAPGQGLEWIGWIDPENGDIEYAPKFQGRATITADTSTDTAYMEFSSLRSEDTAVYYCLYQEGSWGQGTTVTVSS VL: DVVMTQSPLSLPVTLGQPASISCKSSQSLLNSDGKTYLNWLQQRPGQSPRRLIYLVSKLDSGVPDRFTGSGSGTDFTLKISRVEAEDVGVYYCWQGTHFPFTFGGGTKVEIKR | 2.53 µg/mL | 1.39 | – | – | –
4 | humanized KFCC-GY4 antibody CSR01-VH4/VK3 (antibody, human IgG4, V domains shown, also called VH4/VK3 (GY4 variant); CSR01-VH4NK3) VH: EVQLVQSGAEVKKPGASVKVSCTASGFNIKDYYIHWVRQAPGQGLEWIGWIDPENGDIEYAPKFQGRATITADTSTDTAYMEFSSLRSEDTAVYYCLYQEGSWGQGTTVTVSS VL: DVVMTQSPLSLPVTLGQPASISCKSSQSLLNSDGKTYLNWLQQRPGQSPRRLIYLVSKLDSGVPDRFSGSGSGTDFTLKISRVEAEDVGVYYCWQGTHFPFTFGGGTKVEIKR | 2.94 µg/mL | 1.61 | – | – | –
5 | KFCC-GY4 monoclonal antibody (murine, hybridoma ATCC PTA-9963) (antibody, mouse IgG1, V domains shown, also called GY4 mAB; KFCC-GY4 mAb) VH: EVQLQQSGAEFVRSGASVKLSCTASGFNIKDYYIHWVKQRPEQGLEWIGWIDPENGDIEYAPKFQGKATMTADTSSNTAYLQFSSLTSEDTAVYYCLYQEGSWGQGTTLTVSS VL: not shown | 1.82 µg/mL | 1 | – | – | IC50 [4]: 0.98 µg/mL; Kd [5]: 60 nM; binding result [6]: no binding; binding result (His-tagged human CEACAM6): no binding; Kd [2]: 464 nM; koff [2]: 0.00701 s⁻¹; kon [2]: 15100 M⁻¹ s⁻¹
6 | chimeric KFCC-GY4 antibody (CSR01) (antibody, human IgG4, V domains shown, also called Chimeric GY4; chimeric IgG4-GY4) VH: EVQLQQSGAEFVRSGASVKLSCTASGFNIKDYYIHWVKQRPEQGLEWIGWIDPENGDIEYAPKFQGKATMTADTSSNTAYLQFSSLTSEDTAVYYCLYQEGSWGQGTTLTVSS VL: not shown | – | – | – | – | IC50 [4]: 0.8 µg/mL; Kd [2]: 406 nM; koff [2]: 0.00212 s⁻¹; kon [2]: 5210 M⁻¹ s⁻¹
7 | humanized KFCC-GY5 antibody CSR02-VH4/VK2 (antibody, human IgG4, V domains shown, also called VH4/VK2 (GY5 variant); CSR02-VH4NK2) VH: QVQLVQSGSELKKPGASVKVSCKASGYTFTSNYINWVRQAPGQGLEWIGNIYPSDGFTNYNQKFKDRVTITVDKSTSTAYMELSSLRSEDTAVYYCTRNFDVWGQGTTVTVSS VL: DVVMTQSPLSLPVTLGQPASISCRSSQSLVHSNGNTYLQWYLQKPGQSPQLLIYTVSNRFSGVPDRFSGSGSGTDFTLKISRVEAEDVGVYFCSQSTHVPFTFGQGTKLEIKR | – | – | 0.56 µg/mL | 1.47 | –
8 | humanized KFCC-GY5 antibody CSR02-VH5/VK3 (antibody, human IgG4, V domains shown, also called VH5/VK3 (GY5 variant); CSR02-VH5NK3) VH: QVQLVQSGSELKKPGASVKVSCKASGYTFTSNYINWVRQAPGQGLEWMGNIYPSDGFTNYNQKFKDRVTITVDKSTSTAYMELSSLRSEDTAVYYCTRNFDVWGQGTTVTVSS VL: DVVMTQSPLSLPVTLGQPASISCRSSQSLVHSNGNTYLQWYLQKPGQSPQLLIYTVSNRFSGVPDRFSGSGSGPDFTLKISRVEAEDVGVYYCSQSTHVPFTFGQGTKLEIKR | – | – | 0.41 µg/mL | 1.08 | –

The next lines start with results.

Row | IC50 [3] | IC50 (ratio compared to GY4 mAb) [3] | IC50 [7] | IC50 (ratio compared to GY5 mAb) [7] | Binder | other results
9 | 2.18 µg/mL | 1.2 | – | – | humanized KFCC-GY4 antibody CSR01-VH5/VK1 (antibody, human IgG4, V domains shown, also called VH5/VK1 (GY4 variant); CSR01-VH5NK1) VH: EVQLVQSGAEVKKPGASVKVSCTASGFNIKDYYIHWVRQAPGQGLEWIGWIDPENGDIEYAPKFQGRATITADTSTDTAYMELSSLRSEDTAVYYCLYQEGSWGQGTTVTVSS VL: not shown | –
10 | 2.82 µg/mL | 1.55 | – | – | humanized KFCC-GY4 antibody CSR01-VH5/VK3 (antibody, human IgG4, V domains shown, also called VH5/VK3 (GY4 variant); VH5/VK3 IgG4) VH: EVQLVQSGAEVKKPGASVKVSCTASGFNIKDYYIHWVRQAPGQGLEWIGWIDPENGDIEYAPKFQGRATITADTSTDTAYMELSSLRSEDTAVYYCLYQEGSWGQGTTVTVSS VL: DVVMTQSPLSLPVTLGQPASISCKSSQSLLNSDGKTYLNWLQQRPGQSPRRLIYLVSKLDSGVPDRFSGSGSGTDFTLKISRVEAEDVGVYYCWQGTHFPFTFGGGTKVEIKR | –
11 | – | – | 0.43 µg/mL | 1.13 | humanized KFCC-GY5 antibody CSR02-VH4/VK3 (antibody, human IgG4, V domains shown, also called VH4/VK3 (GY5 variant); VH4/VK3 IgG4) VH: QVQLVQSGSELKKPGASVKVSCKASGYTFTSNYINWVRQAPGQGLEWIGNIYPSDGFTNYNQKFKDRVTITVDKSTSTAYMELSSLRSEDTAVYYCTRNFDVWGQGTTVTVSS VL: DVVMTQSPLSLPVTLGQPASISCRSSQSLVHSNGNTYLQWYLQKPGQSPQLLIYTVSNRFSGVPDRFSGSGSGPDFTLKISRVEAEDVGVYYCSQSTHVPFTFGQGTKLEIKR | –
12 | – | – | 0.6 µg/mL | 1.58 | humanized KFCC-GY5 antibody CSR02-VH5/VK2 (antibody, human IgG4, V domains shown, also called VH5/VK2 (GY5 variant); CSR02-VH5NK2) VH: QVQLVQSGSELKKPGASVKVSCKASGYTFTSNYINWVRQAPGQGLEWMGNIYPSDGFTNYNQKFKDRVTITVDKSTSTAYMELSSLRSEDTAVYYCTRNFDVWGQGTTVTVSS VL: DVVMTQSPLSLPVTLGQPASISCRSSQSLVHSNGNTYLQWYLQKPGQSPQLLIYTVSNRFSGVPDRFSGSGSGTDFTLKISRVEAEDVGVYFCSQSTHVPFTFGQGTKLEIKR | –
